From PMC3633458

Experiments:
[1] = molecular target: Escherichia coli-expressed Plasmodium falciparum merozoite surface protein 3 (EcMSP3) (Plasmodium falciparum (FVO strain)); experiment: AUC
[2] = molecular target: Escherichia coli-expressed Plasmodium falciparum merozoite surface protein 3 (EcMSP3) (Plasmodium falciparum (FVO strain)); experiment: SEC-MALS

**Q.** “Escherichia coli-expressed Plasmodium falciparum merozoite surface protein 3 (EcMSP3) (domain or fragment)” was tested. Which stoichiometry N [1] did it give?
**A.** 2

**Q.** And the stoichiometry N [2]?
**A.** 2
